PMC2194782

Molecular target: human plasmin (formed from plasminogen incubated with equimolar SAK or RGD-SAK) (human)

“RGD-SAK (staphylokinase with K35 replaced by Arg) (from UniProt P68802 28-163) (natural protein)” gave a kcat/Km of plasminogen activation by the preformed equimolar RGD-SAK-plasmin complex, monitored with S-2251 of 0.037 µM⁻¹ s⁻¹.
Substance “staphylokinase (SAK) (from UniProt P68802 28-163) (natural protein)” has a kcat/Km of plasminogen activation by the preformed equimolar SAK-plasmin complex, monitored with S-2251 of 0.033 µM⁻¹ s⁻¹.
